The values that follow come from IntAct's records for PubMed 21577206.

The labels stand for the following.
B1: Transgelin-2 (Homo sapiens), P37802 (parent)
chain: MANRGPAYGLSREVQQKIEKQYDADLEQILIQWITTQCRKDVGRPQPGRENFQNWLKDGTVLCELINALYPEGQAPVKKIQASTMAFKQMEQISQFLQAAERYGINTTDIFQTVDLWEGKNMACVQRTLMNLGGLAVARDDGLFSGDPNWFPKKSKENPRNFSDNQLQEGKNVIGLQMGTNRGASQAGMTGYGMPRQIL

Variants of B1 are the subject of the assay. The note with it: with actb_human ACTB.
As to S163D, the “effect of a mutation on the interaction” value is “decreasing interaction”.
On to S163A, for which the “effect of a mutation on the interaction” value is “increasing interaction”.
With S83D, the “effect of a mutation on the interaction” value is recorded as “decreasing interaction”.
Next, S83A: “increasing interaction”.
